Measurements published in publication PMC9323955, “Synthesis and Evaluation of Small Molecule Drug Conjugates Harnessing Thioester-Linked Maytansinoids” (Pharmaceutics, 2022).

Tests used:
[1] = Plasma stability, 24 h incubation with plasma (HPLC); format: in vitro ADME
Protocol: Zn8_DM1: 0H VS. 24H in plasma.
Zn10_DM4: 0H VS. 24H in plasma.
Supporting Figure S1. Incubation of Linker-drug 3 and 4, conjugates Zn8_DM1 and
Zn10_DM4, DM1 and DM4 with plasma for 24 hrs. HPLC condition is listed below. […]

[2] = tested on: HCC1806 triple-negative breast cancer cells; assay: MTS cell viability assay (72 h); format: cell-based, human; details: HCC1806, conjugate vs DM1/DM4
Protocol: HCC1806 cells were grown in RPMI 1640 medium, and MTS assays were performed to check cell viability. Cells (2500–3000 cells/well) were grown in flat-bottomed 96-well plates for 24 h, and then serial dilutions of the compound were added, and cells were allowed to incubate for a further 72 h. At the end of the 72-h incubation period, the medium was removed, and 100 μL of a solution including a mixture of MTS and PMS was added. The cells were incubated for 1.5 h at 37 °C in a humidified incubator with 5% CO2 to allow viable cells to convert tetrazolium salts to formazan. Conversion to formazan was measured by absorbance (490 nm) using a BioTek PowerWave-X absorbance microplate meter. The data collected were normalized using a DMSO-treated control (100% viability) and a background control (0% viability) to verify growth inhibition.

[3] = PS SPR binding assay (Biacore T200, L1 chip); details: DOPC/DOPS (3:1, v/v) liposomes on L1 chip, 25 °C
Protocol: Phospholipids, 1,2-dioleoyl-sn-glycero-3-phosphocholine (DOPC) and 1,2-dioleoyl-sn-glycero-3-[phosphate-L-serine] (DOPS) were obtained as chloroform solutions from Avanti Polar Lipids (Alabaster, AL, USA). These stock solutions were mixed in the specified proportions. A 0.4 mL aliquot of the lipid solution at a 10 mg/mL concentration was added to a round bottom flask and evaporated under a stream of N2 to provide a thin lipid film. The lipid films were rehydrated in PBS buffer for at least 1 h at room temperature. The resulting suspension was extruded through a 100 nm polycarbonate filter using an Avanti MiniExtruder according to the manufacturer’s instructions. Zeta potential (ZP) and liposome size distribution were recorded by dynamic light scattering (DLS) and microelectrophoresis using a Zetasizer Nano ZS instrument. The binding kinetics between conjugates and liposomes were recorded at 25 °C using a Biacore T200 biosensor equipped with an L1 sensor chip (GE Healthcare, Chicago, IL, USA). The new sensor chip was pretreated with running buffer (5% DMSO in phosphate buffered saline (PBS) at a pH of 7.4) and two consecutive 30 s pulses of 2:3 v/v 50 mM HCl/isopropanol at a flow rate of 30 μL/min. New liposome capture plates were prepared for each binding cycle. In PBS buffer, liposomes are diluted to 0.5–1 mM and captured to saturation in isolated flow cells at 2–5 μL/min (30–150 s). […]

[4] = Pharmacokinetic study, single intravenous dose; format: in vivo, male ICR mice
Protocol: Six-week-old male ICR mice from BioLASCO Taiwan were divided into three groups and administered intravenously at a 5 mg/kg dose. Blood samples were taken from each animal at time points 0.003, 0.083, 0.25, 0.5, 1, 2, 4, 6, 8, and 24 h and stored on ice (0–4 °C). The plasma was separated from the blood by centrifugation (in a Beckman Allegra 6R at 3000 rpm, 4 °C for 15 min) and stored under freezing conditions (−20 °C). Plasma and harvested tumor samples were stored at −80 °C until use. Fifty microliters of mouse plasma or tumor samples homogenized with ddH2O at a dilution ratio of 1:3 (w/v) with MiniBeadbeater-16 (BioSpec Products Inc., Bartlesville, OK, USA) were mixed with 100 μL of acetonitrile containing 250 ng/mL BPR0L187. The mixture was vortexed for 30 s and then centrifuged at 15,000× g for 20 min. The supernatant was transferred to a clean test tube, and 15 µL of supernatant was injected into the LC/MS/MS. Plasma samples were analyzed by liquid chromatography-tandem mass spectrometry (LC/MS/MS). The chromatography system was an Agilent 1200 series liquid chromatography system and an Agilent ZORBAX Eclipse XDB-C8 column (5 µm, 3.0 × 150 mm) connected with an MDS Sciex API4000 tandem mass spectrometer equipped with an ESI in forwarding scan mode at 600 °C. Data acquisition was performed by multiple reaction monitoring (MRM). A gradient system was used to separate the analytes from the IS. Mobile phase A was a 10 mM aqueous ammonium acetate solution containing 0.1% formic acid. Mobile phase B was acetonitrile. The gradient profile was as follows. 0.0–1.1 min, 50% B; 1.2–3.7 min, 55% B-90% B; 3.8–5.0 min, 90% B-50% B. The flow rate was 1.5 mL/min. The autosampler was set to inject 15 µL of the sample every 5 min.

[5] = male ICR mice (n = 3), 5 mg/kg i.v.

COc1cc2cc(c1Cl)N(C)C(=O)CC(OC(=O)C(C)N(C)C(=O)CCSC(=O)c1ccc(CN(CCOCCOCCNC(=O)c3ccc(CN(CCCCOc4cc(CN(Cc5ccccn5)Cc5ccccn5)cc(CN(Cc5ccccn5)Cc5ccccn5)c4)C(=O)C4(c5ccc(Cl)cc5)CCCCC4)cc3)C(=O)C3(c4ccc(Cl)cc4)CCCCC3)cc1)C1(C)OC1C(C)C1CC(O)(NC(=O)O1)C(OC)C=CC=C(C)C2.O=[N+]([O-])[O-].O=[N+]([O-])[O-].O=[N+]([O-])[O-].O=[N+]([O-])[O-].[Zn+2].[Zn+2] (centres unmarked) [Zn8_DM1]
cleavage of the maytansinoid after incubation with plasma [1]: No cleavage | fold attenuation in cytotoxicity relative to parent payload [2]: 2.5–6 fold | association with PS-coated liposomes (SPR) [3]: still allowed recognition | AUC (0–24 h), intact conjugate [4, 5]: Intact Conjugate: 161,538 ng/mL·h | CL [4, 5]: 0.5 mL/min/kg | Vss [4, 5]: 0.6 L/kg | AUC (0–24 h), released payload (DM1 or DM4) ([4]; male ICR mice (n = 3), 5 mg/kg i.v. of the conjugate): DM1: 500 ng/mL·h | AUC ratio between intact conjugate and released payload ([4]; within 24 h in circulation, 5 mg/kg i.v.): large AUC ratio
